Results from patent US20250179187A1, “ANTI PD-L2 ANTIBODY” (REJUVERON SENESCENCE THERAPEUTICS AG, priority 2022, published 2025).

Key:
recombinant mPD-L2 = target: T1, recombinant mPD-L2 (Mus musculus, UniProt Q9WUL5); experiment: ELISA for mPDL2; assay type: binding
T1 construct: purchased Sino Biological 50804-M08H-B
T1 sequence (Q9WUL5 20-247): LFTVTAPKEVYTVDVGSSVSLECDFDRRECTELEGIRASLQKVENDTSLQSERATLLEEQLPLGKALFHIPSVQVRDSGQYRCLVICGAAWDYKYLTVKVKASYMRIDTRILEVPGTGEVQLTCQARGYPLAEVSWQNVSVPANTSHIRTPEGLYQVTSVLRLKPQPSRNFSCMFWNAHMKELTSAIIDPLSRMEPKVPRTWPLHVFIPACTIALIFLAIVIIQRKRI
Method: ELISA plates were coated with recombinant mPDL2 (Sino Biological, cat 50804-M08H-B, lot LC10SE0706) at a concentration of 2 micrograms/milliliter at 4° C. for 15 h. Coating was then washed two times with PBS and blocked with 0.5% bovine serum albumin (BSA)/PBS at 37° C. for one hour. Blocking was removed and appropriate antibody concentrations diluted in 0.5% BSA/PBS for 1 hour at 37° C. Plates were then washed five time in PBS and a goat anti-mouse-HRP (Jackon Immuno Research cat #115-035-071) diluted in 0.5% BSA/PBS was added and incubated for 30 minutes at 37° C. Plates were washed again five times with PBS and TMB substrate (Medicago cat #10-9405) was added for 30 minutes at 37° C. in the dark. Reaction was stopped with 1N HCl and read and optical densities read on a standard spectrophotometer plate reader at […].

recombinant hPD-L2 = target: T2, recombinant hPD-L2 (Homo sapiens, UniProt Q9BQ51); experiment: ELISA with recombinant hPD-L2; assay type: binding; conditions: compared to a panel of commercially available anti-PD-L2 antibodies
T2 sequence (Q9BQ51 20-273): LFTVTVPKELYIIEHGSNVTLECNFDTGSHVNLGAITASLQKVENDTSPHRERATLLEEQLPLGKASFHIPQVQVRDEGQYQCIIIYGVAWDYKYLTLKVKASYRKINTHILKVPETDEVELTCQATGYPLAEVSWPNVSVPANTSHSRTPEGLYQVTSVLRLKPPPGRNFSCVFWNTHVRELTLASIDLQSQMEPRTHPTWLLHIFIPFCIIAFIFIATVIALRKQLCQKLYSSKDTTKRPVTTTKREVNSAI

[1] = target: T3, recombinant hPD-1 binding to CHOK-1 cell expressing hPD-L2 (Homo sapiens, UniProt Q9BQ51); experiment: Blocking of recombinant hPD-1 binding to cellular hPD-L2 by flow cytometry; assay type: cell-based; conditions: compared to a panel of commercially available anti-PD-L2 antibodies
T3 construct: GFP; host or cells: CHO-K1
T3 sequence (Q9BQ51 20-273): T2 sequence (Q9BQ51 20-273)
Method: CHO-K1 cells over-expressing either hPDL2-GFP were detached, washed in phosphate buffered saline (PBS) and adjusted to a cell concentration of around 1 million cells in CB. Around 80,000 cells were then distributed into a round-bottom 96 well plate and the plate was centrifuged for 3 minutes at 400 g at 4° C. and supernatant discarded. A constant concentration of ligand recombinant hPD-1 ligand (Sino Biological 10377-H08H/lot LC13JA2207) of 15 micrograms/mL was incubated with respective concentration of antibody, added to the cells and incubated for 30 min at 6-8° C. Cells were washed 3 times in PBS and then incubated with a rabbit polyclonal anti-His (Abcam Ab1187/lot GR3369369-1) in CB and subsequently washed three times in PBS. Cells were then incubated with a labeled anti-rabbit secondary (AlexaFluor 647 Goat anti-Rabbit IgG (H+L) (Invitrogen A21244/lot 1910774) for 15 minutes at 4° C., washed two times in PBS, resuspended in CB and analyzed in the Sony ID7000 Spectral Cell analyzer (Sony).

B1: VH0/VK0-mIgG1: parental murine anti-PD-L2 antibody on mIgG1 backbone; SEQ ID NO: 21/SEQ ID NO: 22 (antibody, V domains shown)
VH: QVQLQQSGAELVRPGTSVKVSCKASGYAFSNYFIEWVKQRPGQGLEWIGLNIPGSGGSNYAEKFKGKATLTADKSSSTAYMQLSSLTSEDSAVYFCARRRLPPDWYFDVWGTGTTVTVSS
VL: DVVMTQTPLSLPVSLGDQASISCRSSQSLVHSDGNTYLHWYLQKPGQSPKLLIYKVSNRFSGVPDRFSGSGSGTDFTLKISRVEAEDLGVYFCSQSTHVPWTFGGGTKLEIK
For B1, the “cross-reactivity to recombinant mPD-L2” value (recombinant mPD-L2) was “shows cross-reactivity”, the “binding activity against recombinant hPD-L2” value (recombinant hPD-L2) was “superior binding activity” and the “blocking activity against recombinant hPD-1 binding to CHOK-1 cell expressing hPD-L2” value [1] was “superior blocking activity”.
